Test results taken from patent publication US20150011421.

What was measured:
[1] = tested on: T1, Biotin-AEEEIYGEFEAKKKKC (SEQ ID NO:4)
T1 sequence: AEEEIYGEFEAKKKKC

[2] = tested on: H2N-(CH2)4-CO-(SEQ ID NO:5)-NH-CH2-Fc
[3] = tested on: H2N-(CH2)4-CO-(SEQ ID NO:2)-NH-CH2-Fc
[4] = tested on: H2N-(CH2)4-CO-(SEQ ID NO:1)-NH-CH2-Fc
[5] = biological target: T2, H2N-(CH2)4-CO-(SEQ ID NO:1)-NH-CH2-Fc
T2 chain: AANL

Z-Ala-Ala-Asn-AMC = biological target: T3, Z-Ala-Ala-Asn-AMC
T3 chain: AAN

[6] = biological target: T4, Biotin-AEEEIYGEFEAKKKKC (SEQ ID NO:4), fully phosphorylated by c-Src kinase
T4 chain: AEEEIYGEFEAKKKKC

“Active c-Src kinase protein (N-terminal 6His-tagged recombinant human c-Src, molecular weight 61.7 kDa)” was tested, and the “phosphorylation of the immobilized peptide” value [1] was “The peptide at the VACNF NEA was fully phosphorylated with 1-hour further incubation in c-Src kinase solution”.

In the case of “Purified recombinant human cathepsin B (R&D Systems), activated in 5 mM DTT and 25 mM MES buffer (pH 5.0)”, the “ACV peak current after adding activated cathepsin B (negative control, P1 Arg replaced by Asn)” value [2] is reported as “The peak current ip,acv of these two tetrapeptides did not show the characteristic exponential decay while the activated cathepsin B was added”, the “cleavage product by HPLC/MS after 2 h incubation in solution” value [3] is reported as “The cleavage product, Phe-Gly-NH-CH2-Fc appeared at 37 min, was found confirming that the proteolysis took place at the arginine site” and the “ACV peak current after adding activated cathepsin B (negative control)” value [4] is reported as “The peak current ip,acv of these two tetrapeptides did not show the characteristic exponential decay while the activated cathepsin B was added”.

B1: Recombinant human legumain/asparaginyl endopeptidase (R&D Systems), activated in 50 mM CH3COONa (pH 4.0) and 100 mM NaCl (protein)
chain: VPIDDPEDGGKHWVVIVAGSNGWYNYRHQADACHAYQIIHRNGIPDEQIVVMMYDDIAYSEDNPTPGIVINRPNGTDVYQGVPKDYTGEDVTPQNFLAVLRGDAEAVKGIGSGKVLKSGPQDHVFIYFTDHGSTGILVFPNEDLHVKDLNETIHYMYKHKMYRKMVFYIEACESGSMMNHLPDNINVYATTAANPRESSYACYYDEKRSTYLGDWYSVNWMEDSDVEDLTKETLHKQYHLVKSHTNTSHVMQYGNKTISTMKVMQFQGMKRKASSPVPLPPVTHLDLTPSPDVPLTIMKRKLMNTN
In the case of B1, the “(kcat/Km)[E0], slope of reaction rate vs. surface adsorbed Fc, [E0]=773 nM” value [5] is reported as “a slope of 6.32×10^-4 s^-1”, the “(kcat/Km)[E0], slope of vi vs. Γsurf, [E0]=80.1 nM” value [5] is reported as “the slope of 6.30×10^-4 s^-1 at [E0]=80.1 nM” and the specificity constant kcat/KM (electrochemistry, EC, VACNF NEAs) [5] is reported as 11300 M⁻¹ s⁻¹. For the same molecule, the “specificity constant kcat/Km (ACV on VACNF NEA), as given in the summary of Example 1” value [5] was 8200 M⁻¹ s⁻¹, the “specificity constant kcat/Km (ACV, single experiment at 80.1 nM)” value [5] was 7900 M⁻¹ s⁻¹ and the “time constant in the fit of surface adsorbed Fc vs. time” value [5] was “the time constant is 1101 s (~48 min)”. For the same molecule, the “time constant of the exponential decay of the ACV peak current after adding legumain” value [5] was “The time constant is 1076 s (~18 min.)” and the specificity constant kcat/KM (fluorescence assay, FL) (Z-Ala-Ala-Asn-AMC) was 4300 M⁻¹ s⁻¹.

B2: PTP1B (residues 1-322, molecular weight 37.4 kDa) (protein)
chain: MEMEKEFEQIDKSGSWAAIYQDIRHEASDFPCRVAKLPKNKNRNRYRDVSPFDHSRIKLHQEDNDYINASLIKMEEAQRSYILTQGPLPNTCGHFWEMVWEQKSRGVVMLNRVMEKGSLKCAQYWPQKEEKEMIFEDTNLKLTLISEDIKSYYTVRQLELENLTTQETREILHFHYTTWPDFGVPESPASFLNFLFKVRESGSLSPEHGPVVVHCSAGIGRSGTFCLADTCLLLMDKRKDPSSVDIKKVLLEMRKFRMGLIQTADQLRFSYLAVIEGAKFIMGDSSVQDQWKELSHEDLEPPPEHIPPPPRPPKRILEPHNG
For B2, the “(kcat/Km)[E0], slope of -d(|Z|/|Z0|)/dt vs. |Z|/|Z0|, [E0]=2.4 nM” value [6] was “a slope of 0.0522 s^-1”, the “decrease in |Z| (REIS) over ~100 s after adding 2.4 nM PTP1B” value [6] was “A sharp decrease in |Z| by ~1,150Ω (~6.3%)” and the “decrease in |Z| (REIS) over ~100 s after adding 2.4 nM PTP1B, percent” value [6] was “A sharp decrease in |Z| by ~1,150Ω (~6.3%)”. The “specificity constant kcat/Km (REIS, 2.4 nM PTP1B)” value [6] was 2.2e+07 M⁻¹ s⁻¹ and the “specificity constant kcat/Km (REIS, average of 7 data sets at three PTP1B concentrations)” value [6] was “an average value of 2.1×10^7 M^-1 s^-1 and a standard deviation of 1.0×10^6 M^-1 s^-1”.
